Measured values as given in publication PMC9411207, “Designed peptides as nanomolar cross-amyloid inhibitors acting via supramolecular nanofiber co-assembly” (Nature Communications, 2022).
Square brackets hold non-standard residues; d marks the D form. Ends that are not written are not given here. NMeF = CN[C@@H](Cc1ccccc1)C(=O)O; NMeL = CN[C@@H](CC(C)C)C(=O)O; NMeV = CN[C@H](C(=O)O)C(C)C; Nle = CCCC[C@H](N)C(=O)O

T1: N-terminal fluorescein-labeled IAPP (human, UniProt P10997 34-70, fluorescein on the N-terminus; subjected to air-oxidation)
T1 construct: also called Fluos-IAPP; source: synthetic peptide (Fmoc-SPPS, air-oxidation, RP-HPLC purified)
T1 chain (looked up): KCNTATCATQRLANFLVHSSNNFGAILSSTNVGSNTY


Assays:
[1] = molecular target: T1, N-terminal fluorescein-labeled IAPP; test: other fluorescence titration; N-terminal fluorescently-labeled peptide (5 nM) titrated with unlabeled peptide; 10 mM sodium phosphate buffer, pH 7.4 (1% HFIP); measured within 2–5 min after preparation; apparent KDs from 1/1 binding models; details: both partners purified
[2] = molecular target: T2, Fluorescein-isothiocyanate-β-Ala-labeled Aβ42 (UniProt P05067 672-713, fluorescein-isothiocyanate-β-Ala on the N-terminus); test: as above; details: both partners purified
T2 construct: amyloid-β peptide Aβ42, the 42-residue cut product of the amyloid precursor protein; also called FITC-Aβ42; N-terminal FITC-labeled Aβ42; source: bought: Bachem
T2 sequence (P05067 672-713): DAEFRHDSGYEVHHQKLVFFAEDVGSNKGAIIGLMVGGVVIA

[3] = molecular target: the molecule itself; test: SEC; Superdex 75 10/300 GL, 50 mM sodium phosphate pH 7.4, 100 mM NaCl; IAPP (16.5 µM) alone or with Nle3-VF (1/2) incubated in ThT buffer, 0 h and 96 h

Binder	Kd [1] [nM]	Kd [2] [nM]	stoichiometry N [3]
QK[NMeL]V[NMeF]FAEDLLLNKGAIIGL[Nle]VGGVV [L3-LF]	143	2.6	
QK[NMeL]V[NMeF]FAEDFFFNKGAIIGL[Nle]VGGVV [F3-LF]	37.6	431	
QKL[NMeV]F[NMeF]AEDFFFNKGAIIGL[Nle]VGGVV [F3-VF]	15	161	
QKL[NMeV]F[NMeF]AED[Nle][Nle][Nle]NKGAIIGL[Nle]VGGVV [Nle3-VF]	69.5	14.5	2

More lines, main results first:

Kd [1] [nM]	Kd [2] [nM]	Binder	stoichiometry N [3]
55.4	11.1	QK[NMeL]V[NMeF]FAED[Nle][Nle][Nle]NKGAIIGL[Nle]VGGVV [Nle3-LF]	
77.3	38	QKL[NMeV]F[NMeF]AEDLLLNKGAIIGL[Nle]VGGVV [L3-VF]	
